In paper PMC9108607, “The intrinsically disordered CARDs‐Helicase linker in RIG‐I is a molecular gate for RNA proofreading”:

Key:
WT RIG-I = molecular target: T1, WT RIG-I (human, UniProt O95786 1-925); assay: RNA-dependent ATPase titration (KD,app); 1 mM ATP; Buffer A: 50 mM MOPS pH 7.4, 5 mM DTT, 5 mM MgCl2, 0.01% Tween20, 25°C (fluorimetry: 15 nM RNA; ATPase: 15 nM protein, 1 mM ATP); EMSA in Buffer A at 4°C; details: protein: recombinant; tags: 6xHis-SUMO removed by Ulp1; label: 3' DY547 and 5' biotin on strand 2; blunt
T1 sequence: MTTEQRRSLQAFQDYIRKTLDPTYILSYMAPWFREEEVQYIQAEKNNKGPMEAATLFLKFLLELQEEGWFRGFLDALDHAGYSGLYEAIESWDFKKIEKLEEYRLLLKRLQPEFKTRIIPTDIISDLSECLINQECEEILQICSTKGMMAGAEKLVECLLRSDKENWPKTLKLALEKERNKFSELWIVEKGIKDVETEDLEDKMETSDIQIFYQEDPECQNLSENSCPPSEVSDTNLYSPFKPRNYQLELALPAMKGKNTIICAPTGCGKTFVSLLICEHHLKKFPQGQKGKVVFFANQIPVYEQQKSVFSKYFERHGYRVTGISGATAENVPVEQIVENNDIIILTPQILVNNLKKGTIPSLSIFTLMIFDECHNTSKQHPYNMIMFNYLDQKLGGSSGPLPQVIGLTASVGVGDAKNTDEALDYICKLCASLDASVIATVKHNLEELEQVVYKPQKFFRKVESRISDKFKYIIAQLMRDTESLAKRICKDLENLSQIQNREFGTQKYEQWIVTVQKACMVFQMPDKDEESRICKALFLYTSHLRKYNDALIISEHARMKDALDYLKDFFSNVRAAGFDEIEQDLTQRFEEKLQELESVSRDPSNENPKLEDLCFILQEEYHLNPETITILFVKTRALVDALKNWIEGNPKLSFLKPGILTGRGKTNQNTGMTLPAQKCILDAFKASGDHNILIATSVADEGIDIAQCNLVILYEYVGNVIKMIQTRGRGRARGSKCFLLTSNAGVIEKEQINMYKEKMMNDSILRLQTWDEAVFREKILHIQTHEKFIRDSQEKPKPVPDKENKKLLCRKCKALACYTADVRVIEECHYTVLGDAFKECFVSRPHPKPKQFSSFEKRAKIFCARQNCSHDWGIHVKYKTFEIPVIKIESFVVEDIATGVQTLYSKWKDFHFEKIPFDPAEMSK

Δ190-200 RIG-I = molecular target: T2, Δ190-200 RIG-I (human, UniProt O95786 1-925, del190-200); assay: EMSA; streptavidin, ±2 mM ATP; oligomerizes with ATP; Buffer A: 50 mM MOPS pH 7.4, 5 mM DTT, 5 mM MgCl2, 0.01% Tween20, 25°C (fluorimetry: 15 nM RNA; ATPase: 15 nM protein, 1 mM ATP); EMSA in Buffer A at 4°C; details: protein: recombinant; tags: 6xHis-SUMO removed by Ulp1; label: 3' DY547 and 5' biotin on strand 2; blunt
T2 sequence: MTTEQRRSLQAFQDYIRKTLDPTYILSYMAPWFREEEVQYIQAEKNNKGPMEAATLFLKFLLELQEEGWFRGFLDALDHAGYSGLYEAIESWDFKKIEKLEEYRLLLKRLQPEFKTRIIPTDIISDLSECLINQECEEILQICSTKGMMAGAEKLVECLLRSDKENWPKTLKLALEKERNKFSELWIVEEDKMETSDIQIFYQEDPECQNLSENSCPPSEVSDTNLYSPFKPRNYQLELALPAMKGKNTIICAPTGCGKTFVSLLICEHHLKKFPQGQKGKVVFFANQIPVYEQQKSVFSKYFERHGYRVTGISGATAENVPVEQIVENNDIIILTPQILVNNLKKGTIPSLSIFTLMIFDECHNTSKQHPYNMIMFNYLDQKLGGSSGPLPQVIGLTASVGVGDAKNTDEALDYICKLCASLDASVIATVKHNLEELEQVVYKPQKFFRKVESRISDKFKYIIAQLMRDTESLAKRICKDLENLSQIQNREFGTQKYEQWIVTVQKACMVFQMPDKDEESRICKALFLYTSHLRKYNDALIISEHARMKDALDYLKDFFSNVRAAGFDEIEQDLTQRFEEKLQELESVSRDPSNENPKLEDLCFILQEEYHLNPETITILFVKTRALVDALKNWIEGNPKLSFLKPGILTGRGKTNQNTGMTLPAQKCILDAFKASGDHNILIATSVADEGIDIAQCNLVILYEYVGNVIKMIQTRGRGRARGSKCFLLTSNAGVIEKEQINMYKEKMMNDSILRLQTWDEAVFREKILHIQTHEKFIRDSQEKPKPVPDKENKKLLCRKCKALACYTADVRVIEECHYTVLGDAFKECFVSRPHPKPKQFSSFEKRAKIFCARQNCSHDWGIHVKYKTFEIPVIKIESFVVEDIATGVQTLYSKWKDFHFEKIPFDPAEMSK

B1: 5'ppp ds27 (dsRNA)
RNA 1: AUACGUCCUGAUAGUUAGUAUCCAUCG
RNA 2: CGAUGGAUACUAACUAUCAGGACGUAU
modifications: 5'ppp on strand 1
Q: Which results are given for B1?
A: apparent KD relative to Hel-CTD (WT RIG-I): ~5 fold weaker than Hel-CTD; binding result (Δ190-200 RIG-I): binds
